Experimental data taken from article PMC6499398.
Like-named read-outs stand apart in the source and are kept apart here.

Columns and labels:
Assay in all cases: EMSA
TDP43(WT) [1] = biological target: T1, TDP43(WT) (UniProt Q13148 1-414)
TDP43(WT) [2] = biological target: T1, TDP43(WT); remark: listed apart in the source
TDP43(WT) [3] = biological target: T1, TDP43(WT); remark: listed apart in the source

T1 sequence (Q13148 whole entry): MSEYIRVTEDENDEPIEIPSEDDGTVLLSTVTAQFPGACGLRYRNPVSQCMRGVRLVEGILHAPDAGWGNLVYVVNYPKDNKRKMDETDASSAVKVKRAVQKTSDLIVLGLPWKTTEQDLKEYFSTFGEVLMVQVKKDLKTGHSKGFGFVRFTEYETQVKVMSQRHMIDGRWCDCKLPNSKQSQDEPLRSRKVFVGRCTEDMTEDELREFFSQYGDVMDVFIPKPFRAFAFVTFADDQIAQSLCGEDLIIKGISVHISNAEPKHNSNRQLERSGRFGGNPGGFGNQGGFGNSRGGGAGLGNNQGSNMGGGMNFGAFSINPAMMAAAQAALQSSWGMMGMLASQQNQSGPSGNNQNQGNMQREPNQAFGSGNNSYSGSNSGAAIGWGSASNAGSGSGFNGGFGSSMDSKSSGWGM

Binder	binding result (TDP43(WT) [2])	also measured
TGTGTGTGTGTGTGTGTGTGTGTG (ssDNA) [(TG)12]		Kd (TDP43(WT) [1]): 7.4 ± 0.34 nM
GCGCGCGCGCGCGCGCGCGCGCGC (ssDNA) [(GC)12]	no binding	
ATATATATATATATATATATATAT (ssDNA) [(AT)12]	no binding	
UGUGUGUGUGUGUGUGUGUGUGUG (ssRNA) [(UG)12]		Kd (TDP43(WT) [3]): 0.35 ± 0.1 nM
